Substitutions are numbered along the chain they refer to. In names and notes the source's numbering stands.
T1: deglycosylated FMOD (bovine, UniProt P13605 19-376, N-linked oligosaccharides (including keratan sulphate) removed with N-glycosidase F)
T1 construct: The same polypeptide as FMOD, without its N-linked glycans; also called N-glycosidase F-treated FMOD
T1 sequence (looked up): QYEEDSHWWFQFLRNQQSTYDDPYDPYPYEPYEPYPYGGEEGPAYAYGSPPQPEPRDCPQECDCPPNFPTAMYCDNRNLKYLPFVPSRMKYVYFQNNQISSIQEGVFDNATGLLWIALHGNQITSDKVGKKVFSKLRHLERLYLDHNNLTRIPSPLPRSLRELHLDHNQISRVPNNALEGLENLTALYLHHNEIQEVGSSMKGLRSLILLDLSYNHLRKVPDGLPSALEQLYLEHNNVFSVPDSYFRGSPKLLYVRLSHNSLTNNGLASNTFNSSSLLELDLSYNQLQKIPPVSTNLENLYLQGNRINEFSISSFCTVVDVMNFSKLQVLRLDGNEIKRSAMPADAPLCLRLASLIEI

T2: fibromodulin (bovine, UniProt P13605 19-376, glycosylated (N-linked oligosaccharides including keratan sulphate), as isolated)
T2 construct: Isolated from tissue; coated on microtitre plates at 10 ug/ml; also called FMOD; untreated (glycosylated) FMOD
T2 sequence (looked up): T1 sequence (looked up)

T3: C-reactive protein (UniProt P02741 19-224)
T3 construct: Bought; Coated on microtitre plates at 10 ug/ml; also called CRP; recombinant CRP
T3 sequence (looked up): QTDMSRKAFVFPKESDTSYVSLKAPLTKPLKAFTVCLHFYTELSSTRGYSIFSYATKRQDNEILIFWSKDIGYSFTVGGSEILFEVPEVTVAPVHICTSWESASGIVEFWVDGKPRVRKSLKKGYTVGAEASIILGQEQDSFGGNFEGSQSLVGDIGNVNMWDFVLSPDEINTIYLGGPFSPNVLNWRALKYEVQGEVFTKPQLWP

B1: FHCCP6-8(Y384) (other)
chain: GTLKPCDYPDIKHGGLYHENMRRPYFPVAVGKYYSYYCDEHFETPSGSYWDHIHCTQDGWSPAVPCLRKCYFPYLENGYNQNYGRKFVQGKSIDVACHPGYALPKAQTTVTCMENGWSPTPRCIRVKTCSKSSIDIENGFISESQYTYALKEKAKYQCKLGYVTADGETSGSITCGKDGWSAQPTCI
modifications: in some assays biotinylated with EZlink N-hydroxysuccinimide-LC Biotin (sites not given)
notes: Made by site-directed mutagenesis (H384Y) of FHCCP6-8(H384); also called FHCCP68 (Y384 allotype); Y384 variant
B2: FHCCP6-8(H384) (other)
chain: B1 chain with Y83H
modifications: in some assays biotinylated with EZlink N-hydroxysuccinimide-LC Biotin (sites not given)
notes: Used unlabelled (detected with a goat polyclonal anti-FH antibody) or biotinylated; also called FHCCP68 (H384 allotype); H384 variant

Columns and labels:
deglycosylated FMOD = biological target: T1, deglycosylated FMOD; experiment: microtitre plate assay, deglycosylated against untreated FMOD coated
fibromodulin = biological target: T2, fibromodulin; experiment: plate assay: FMOD coated on microtitre wells at 10 ug/ml, biotinylated protein in fluid phase, detection with streptavidin peroxidase kit, A490, background subtracted
Procedure: FIG. 12: Binding of FHCCP6-8(H384), FHCCP6-8(Y384) and full length FH to FMOD. A. FMOD was coated in microtitre plate wells at a concentration of 10 μg/ml. BSA was used as the negative coating control. FHCCP6-8(H384) and FHCCP6-8(Y384) recombinant proteins or full length FH were incubated in fluid phase and bound protein was detected with a specific polyclonal antibody. B. FMOD was coated in microtitre plate wells as described for A. Biotinylated versions of FHCCP6-8(H384) and FHCCP6-8(Y384) were incubated in the wells and bound protein was detected with a streptavidin peroxidase kit. C. Untreated (glycosylated) and N-glycosidase F-treated FMOD were assessed for binding full length FH in a microtitre plate based binding assay. Bound protein was detected with a specific polyclonal antibody. […]
CRP or FMOD was coated overnight at 4° C. onto microtiter plates (Maxisorp, Nunc) at a concentration of 10 μg/ml in 75 mM sodium carbonate buffer, pH 9.6. […] The amount of bound protein was assessed using a goat polyclonal anti-FH antibody (Quidel, Cat # A312) followed by HRP-labeled anti-goat secondary antibodies (Dako) and the OPD development kit (Dako). Detection of biotinylated protein was performed using a StreptABComplex/HRP-kit from Dako, and in both cases the absorbance at 490 nm was measured to quantify protein binding.

C-reactive protein = biological target: T3, C-reactive protein; experiment: plate assay: CRP coated on microtitre wells (10 ug/ml), unlabelled protein in fluid phase, detection with goat polyclonal anti-FH antibody and HRP secondary, A490, background subtracted
Procedure: CRP or FMOD was coated overnight at 4° C. onto microtiter plates (Maxisorp, Nunc) at a concentration of 10 μg/ml in 75 mM sodium carbonate buffer, pH 9.6. Wells treated only with coating buffer or 1% (w/v) BSA (Sigma) in coating buffer (for the assays involving FMOD) were used as negative controls. Between each step the wells were washed extensively with 50 mM Tris-HCl, 150 mM NaCl, 0.1% (v/v) Tween 20, pH 7.5. All wells were blocked with 1% (w/v) BSA (Sigma) in phosphate buffered saline (Invitrogen) for 1 hour at 37° C. FHCCP6-8(H384) and FHCCP6-8(Y384) were added at varrying concentrations in the binding buffer (50 mM HEPES, 100 mM NaCl, 2 mM CaCl₂, pH 7.4); full length FH served as a positive control. In the experiments with FMOD, 50 μg/ml BSA was included in the binding buffer. The amount of bound protein was assessed using a goat polyclonal anti-FH antibody (Quidel, Cat # A312) followed by HRP-labeled anti-goat secondary antibodies (Dako) and the OPD development kit (Dako). Detection of biotinylated protein was performed using a StreptABComplex/HRP-kit from Dako, and in both cases the absorbance at 490 nm was measured to quantify protein binding.

Binder | binding result (deglycosylated FMOD) | binding result (fibromodulin) | EC50 (read off the curve) (C-reactive protein)
B1 | binds | binds | ~1 µg/mL
B2 | binds | binds | –

Reference: US20080171343A1 (UNIVERSITY OF MANCHESTER, published 2008)
